Laboratory results as given in patent US6919086B1, “Graminae pollen allergen mutants for specific immunotherapy, and production and use of the same” (Merck Patent Gesellschaft mit, priority 1997, dated 2005).

What was measured:
[1] = biological target: IgE antibodies of the allergic patient serum pool Bor 18/100 (20 donors); test: EAST inhibition, serum pool Bor 18/100
[2] = biological target: specific IgE on basophils from the blood of allergic patient; test: cell-based or functional assay
[3] = test system: basophils from the blood of an allergic patient; test: Histamine release from basophils; assay type: cell-based, human
Description: Apart from the binding of the allergen to the spec. IgE, the allergen-induced, IgE-mediated release of histamine by allergic effect or cells is of pathophysiological importance for the allergic reaction (side effect). The reactivity of the effector cells (basophils and mast cells) and the epitope specificity of the IgE antibodies which are bound by way of FcεRI are also of importance in this context. For this reason, the modified recombinant allergen variants are tested for their ability to induce histamine release by the degranulation of IgE-loaded basophils which are isolated from the blood of allergic patients.
Before the histamine release test was carried out, the basophilic leucocytes from the EDTA blood of an allergic patient ([…]) were first of all enriched by means of dextran sedimentation and then adjusted to a final concentration of 100,000 basophils/ml. In order to release histamine from the basophils, 200 μl of the cell suspension were in each case incubated, at 37° C. for 40 min, with 50 μl of antigen solution. For this, the rPh1 […] p 5b and the mutants were employed in varying concentrations (of 10^−5-10^−12 M). The histamine which was released was determined in the respective supernatants using the Pharmacia methylhistamine RIA in accordance with the manufacturer's instructions.

[4] = biological target: IgE antibodies of the allergic patient serum pool We 6/97; test: EAST inhibition, serum pool We 6/97

Row | Molecule | IC50 [1] [nM] | allergenic potency (Prel) at 25% inhibition (relative to native Phl p 5b) [1] | allergenic potency (Prel) at 50% inhibition (relative to native Phl p 5b) [1] | inhibition value (inhibitor concentration at 25% inhibition) [1] [mol/L] | concentration required to bring about a 30% histamine release from basophils, against wild type rPh1 p 5b [2] [fold higher] | Concentration required to bring about a 30% histamine release, fold higher than wild type rPhl p 5b [3] [fold] | IC50 [4] [nM] | allergenic potency (Prel) at 25% inhibition (relative to native Phl p 5b) [4] | allergenic potency (Prel) at 50% inhibition (relative to native Phl p 5b) [4] | inhibition value (inhibitor concentration at 25% inhibition) [4] [mol/L]
1 | rPhl p 5b deletion mutant DM3 (deletion A154-T177, A220T) (protein) ADAGYAPATPAAAGAAAGKATTEEQKLIEDINVGFKAAVAAAASVPAADKFKTFEAAFTSSSKAAAAKAPGLVPKLDAAYSVAYKAAVGATPEAKFDSFVASLTEALRVIAGALEVHAVKPVTEEPGMAKIPAGELQIIDKIDAAFKVAATAAGGAYDTYKCIPSLEAAVKQAYAATVAAAPQVKYAVFEAALTKTITAMSEVQKVSQPATGAATVAAGAATTAAGAASGAATVAAGGYKV | 4100 | 0.028 | 0.0001 | 1.2e-09 | 3 | 3 | 29 | 0.099 | 0.002 | 5.1e-09
2 | DM1: deletion mutant of rPhl p 5b (ΔK50-P132, D49→L), SEQ ID NO 91 (protein) ADAGYAPATPAAAGAAAGKATTEEQKLIEDINVGFKAAVAAAASVPAALAGELQIIDKIDAAFKVAATAAATAPADDKFTVFEAAFNKAIKESTGGAYDTYKCIPSLEAAVKQAYAATVAAAPQVKYAVFEAALTKAITAMSEVQKVSQPATGAATVAAGAATTAAGAASGAATVAAGGYKV | – | – | – | – | – | 20 | – | – | – | –
3 | rPhl p 5b point mutant PM1 (N32D, D49L, K50A) (protein) ADAGYAPATPAAAGAAAGKATTEEQKLIEDIDVGFKAAVAAAASVPAALAFKTFEAAFTSSSKAAAAKAPGLVPKLDAAYSVAYKAAVGATPEAKFDSFVASLTEALRVIAGALEVHAVKPVTEEPGMAKIPAGELQIIDKIDAAFKVAATAAATAPADDKFTVFEAAFNKAIKESTGGAYDTYKCIPSLEAAVKQAYAATVAAAPQVKYAVFEAALTKAITAMSEVQKVSQPATGAATVAAGAATTAAGAASGAATVAAGGYKV | 12 | 0.739 | 0.349 | 4.5e-10 | – | – | 120 | 0.415 | 0.051 | 1.2e-09
4 | rPhl p 5b point mutant PM3 (A13C) (protein) ADAGYAPATPAACGAAAGKATTEEQKLIEDINVGFKAAVAAAASVPAADKFKTFEAAFTSSSKAAAAKAPGLVPKLDAAYSVAYKAAVGATPEAKFDSFVASLTEALRVIAGALEVHAVKPVTEEPGMAKIPAGELQIIDKIDAAFKVAATAAATAPADDKFTVFEAAFNKAIKESTGGAYDTYKCIPSLEAAVKQAYAATVAAAPQVKYAVFEAALTKAITAMSEVQKVSQPATGAATVAAGAATTAAGAASGAATVAAGGYKV | 4.8 | 1.64 | 0.864 | 2e-10 | – | – | 30 | 0.611 | 0.203 | 8.3e-10
